Laboratory results: patent publication US20200255527

Experiments:
[1] = molecular target: FH-AGO2 mono-methylated at K726 (ectopically expressed in MCF-7 cells with LSD1 inhibited) (UniProt Q9UKV8)
FH-AGO2-K726R = FH-AGO2-K726R (UniProt Q9UKV8)
FH-AGO2-K726R, sequence (Q9UKV8 whole entry K726R): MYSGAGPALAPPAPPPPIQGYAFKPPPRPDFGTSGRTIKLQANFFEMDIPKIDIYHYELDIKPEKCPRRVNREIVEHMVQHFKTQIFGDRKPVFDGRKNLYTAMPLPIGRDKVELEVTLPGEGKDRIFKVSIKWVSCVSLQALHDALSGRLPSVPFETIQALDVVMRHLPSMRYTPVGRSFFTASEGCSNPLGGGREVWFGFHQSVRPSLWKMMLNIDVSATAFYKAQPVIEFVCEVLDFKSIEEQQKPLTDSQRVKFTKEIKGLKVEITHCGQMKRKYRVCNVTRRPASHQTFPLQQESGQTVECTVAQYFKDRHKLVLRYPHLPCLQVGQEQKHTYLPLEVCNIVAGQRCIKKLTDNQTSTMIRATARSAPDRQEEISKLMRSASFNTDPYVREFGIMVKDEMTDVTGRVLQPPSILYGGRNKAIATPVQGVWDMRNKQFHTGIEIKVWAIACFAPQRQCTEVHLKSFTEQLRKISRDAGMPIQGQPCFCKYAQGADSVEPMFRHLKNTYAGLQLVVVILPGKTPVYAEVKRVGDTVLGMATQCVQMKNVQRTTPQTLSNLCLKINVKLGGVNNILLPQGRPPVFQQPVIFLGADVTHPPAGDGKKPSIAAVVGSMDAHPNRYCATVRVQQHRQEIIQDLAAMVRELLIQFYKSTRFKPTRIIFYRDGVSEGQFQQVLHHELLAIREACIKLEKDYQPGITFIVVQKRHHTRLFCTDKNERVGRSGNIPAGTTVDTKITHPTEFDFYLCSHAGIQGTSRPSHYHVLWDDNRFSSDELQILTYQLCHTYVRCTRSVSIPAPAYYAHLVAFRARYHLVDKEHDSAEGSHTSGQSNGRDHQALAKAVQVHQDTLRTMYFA

FH-AGO2 mono-methylated at K726 (ectopically expressed in MCF-7 cells with LSD1 inhibited), sequence (Q9UKV8 whole entry): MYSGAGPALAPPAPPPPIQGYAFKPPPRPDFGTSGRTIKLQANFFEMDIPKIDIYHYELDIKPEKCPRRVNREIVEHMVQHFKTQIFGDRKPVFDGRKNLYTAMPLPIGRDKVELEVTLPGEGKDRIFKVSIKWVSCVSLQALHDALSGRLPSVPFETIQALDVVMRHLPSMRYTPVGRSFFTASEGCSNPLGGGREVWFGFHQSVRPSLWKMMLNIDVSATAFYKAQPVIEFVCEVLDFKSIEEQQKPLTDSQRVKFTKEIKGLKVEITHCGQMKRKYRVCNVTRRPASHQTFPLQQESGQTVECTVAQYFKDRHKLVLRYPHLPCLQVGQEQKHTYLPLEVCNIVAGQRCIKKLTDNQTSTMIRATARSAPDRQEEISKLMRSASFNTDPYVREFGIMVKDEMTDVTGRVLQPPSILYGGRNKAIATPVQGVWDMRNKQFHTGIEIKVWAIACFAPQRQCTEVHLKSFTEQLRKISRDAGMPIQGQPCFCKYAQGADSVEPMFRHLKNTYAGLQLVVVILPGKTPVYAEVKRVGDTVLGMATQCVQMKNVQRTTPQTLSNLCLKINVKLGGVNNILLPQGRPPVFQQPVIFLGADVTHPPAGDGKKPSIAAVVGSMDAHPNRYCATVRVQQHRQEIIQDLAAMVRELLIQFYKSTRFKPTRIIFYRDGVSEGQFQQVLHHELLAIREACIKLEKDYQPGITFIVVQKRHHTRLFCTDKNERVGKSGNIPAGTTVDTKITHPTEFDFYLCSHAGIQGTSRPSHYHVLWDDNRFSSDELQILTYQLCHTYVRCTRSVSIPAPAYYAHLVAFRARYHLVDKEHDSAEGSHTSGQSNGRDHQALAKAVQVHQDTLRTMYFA

Substance | K726me1 level on FH-AGO2 in in vitro demethylation assay [1] | K726me1 level in in vitro demethylation assay (FH-AGO2-K726R)
FH-LSD1-K661A (catalytically compromised LSD1) | FH-LSD1 but not FH-LSD1-K661A decreased K726me1 level on FH-AGO2 | –
FH-LSD1 (Flag-HA-tagged LSD1 stably expressed in MCF-7 cells) | FH-LSD1 but not FH-LSD1-K661A decreased K726me1 level on FH-AGO2 | had no observable effects on FH-AGO2-K726R
